Laboratory results reported in US20250288612A1 (TOPMUNNITY THERAPEUTICS TAIWAN, published 2025).

Biological target: T1, recombinant PD-L1 (UniProt Q9NZQ7 19-238, limits assumed)
T1 construct: also called Programmed Death-Ligand 1
Assay: SPR, Biacore T200, multi-cycle kinetics, hTT-01 captured on Protein A chip, PD-L1 as analyte, 25 C
Description: The chip contains MabSelect SuRe ligand on the surface, allowing orientation-specific binding of the Fc region of an antibody.
The assay was performed by using the Kinetic/Affinity wizard. The Flow path was 2-1, as the ligand was injected and captured in Flow cell 2 and Flow cell 1 acted as a reference. A series of concentrations of PD-L1 were injected over the reference and the ligand surface consecutively as the association phase with short dissociation phases in between by injection running buffer. Then regeneration solution was injected as the regeneration phase. All the procedures were conducted at 25° C.

T1 sequence (Q9NZQ7 19-238 limits assumed): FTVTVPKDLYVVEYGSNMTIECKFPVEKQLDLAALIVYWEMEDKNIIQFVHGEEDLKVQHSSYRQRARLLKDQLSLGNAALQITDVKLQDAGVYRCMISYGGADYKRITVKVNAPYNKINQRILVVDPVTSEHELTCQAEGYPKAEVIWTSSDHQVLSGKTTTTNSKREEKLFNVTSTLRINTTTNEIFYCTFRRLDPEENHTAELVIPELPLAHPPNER

Kd: 2.56 nM
half-life (t1/2) of the interaction: 1.31 h
koff: 0.000147 s⁻¹
kon: 57700 M⁻¹ s⁻¹
B1: humanized anti-PD-L1 monoclonal antibody hTT-01 (antibody, V domains shown)
VH: EVQLVESGGGLVKPGGSLRLSCAASGFSLSNYVMSWVRQAPGKGLEWVATISSGGRYIYYTDSVKGRFTISRDNAKNSLYLQMNSLRAEDTAVYYCARDGSTLYYFDYWGQGTTVTVSS
VL: QTVLTQSPATLSLSPGERATLSCSASSSVDYMYWYQQKPGQAPRLLIYDTSNLATGIPARFSGSGSGTDFTLTISSLEPEDFATYYCQQWSSSPPITFGQGTKVEIK
notes: It was captured through its Fc on a Protein A chip, and an anti-human IgG secondary antibody was used in FACS; also called TT-01 humanized monoclonal antibody
